Consider one molecule from patent US20250296994A1 (SYSMEX, published 2025).

The target of test [1] is T1, human Crtac1A (human, UniProt Q9NQ79 28-661).
T1 construct: Recombinant protein (IB control sample) or native protein in human CSF and serum; also called rCrtac1A
T1 sequence: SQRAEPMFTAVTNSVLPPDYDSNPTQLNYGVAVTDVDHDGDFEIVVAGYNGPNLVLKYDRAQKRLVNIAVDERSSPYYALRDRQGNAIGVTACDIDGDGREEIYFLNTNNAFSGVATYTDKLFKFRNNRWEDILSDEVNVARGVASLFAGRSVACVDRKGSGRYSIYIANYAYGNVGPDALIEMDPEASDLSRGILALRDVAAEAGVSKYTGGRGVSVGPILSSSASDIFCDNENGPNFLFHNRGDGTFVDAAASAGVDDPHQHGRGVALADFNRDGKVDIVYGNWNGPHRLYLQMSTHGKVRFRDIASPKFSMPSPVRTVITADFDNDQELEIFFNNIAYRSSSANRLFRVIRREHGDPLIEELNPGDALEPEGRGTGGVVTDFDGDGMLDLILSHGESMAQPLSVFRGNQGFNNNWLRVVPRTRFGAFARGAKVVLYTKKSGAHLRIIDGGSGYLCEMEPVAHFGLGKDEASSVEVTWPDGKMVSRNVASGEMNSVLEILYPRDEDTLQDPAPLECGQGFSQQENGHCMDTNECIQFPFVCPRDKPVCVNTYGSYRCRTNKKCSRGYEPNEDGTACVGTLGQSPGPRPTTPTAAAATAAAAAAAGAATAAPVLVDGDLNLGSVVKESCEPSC
Briefly: immunoblotting (Wes) of denatured recombinant Crtac1A/1B and human CSF. The protocol: Study of specificity of monoclonal antibody to antigen (1) Immunoblotting (IB) analysis using a monoclonal antibody purified from the culture supernatant of hybridomas of clones 1B4 and 15C2 was performed on human cerebrospinal fluid (2 specimens: referred to as CSF1 and CSF2) by simple Western (registered trademark) system Wes (registered trademark) (Protein Simple Corporation). In the analysis by Wes, capillary electrophoresis and IB of the sample were performed fully automatically by the apparatus. Specific operations such as preparation of an electrophoresis sample, preparation of a diluent of a primary antibody, and analysis by an apparatus were performed according to the protocol attached to Wes. As a control sample, recombinant proteins of Crtac1A and Crtac1B were used. These recombinant proteins were prepared in the same manner as in Example 1. For comparison, analysis using an anti-rat LOTUS antibody (ITM, 45-12C) as a primary antibody was also performed.
In FIG. 5, “conventional antibody” represents the anti-rat LOTUS antibody, and “rCrtac1A/1B” represents recombinant proteins of Crtac1A and Crtac1B. […] However, when monoclonal antibodies derived from clones 1B4 and 15C2 were used, a band was not detected. In the electrophoresis sample, the protein in the sample was denatured by addition of a sample buffer and heating.
On the technique in general: A western blot detects proteins with antibodies after separation by electrophoresis.

The target of test [2] is T2, recombinant Crtac1B fragment #5 (human, UniProt Q9NQ79 28-606).
T2 construct: also called fCrtac1B (1-608)
T2 sequence: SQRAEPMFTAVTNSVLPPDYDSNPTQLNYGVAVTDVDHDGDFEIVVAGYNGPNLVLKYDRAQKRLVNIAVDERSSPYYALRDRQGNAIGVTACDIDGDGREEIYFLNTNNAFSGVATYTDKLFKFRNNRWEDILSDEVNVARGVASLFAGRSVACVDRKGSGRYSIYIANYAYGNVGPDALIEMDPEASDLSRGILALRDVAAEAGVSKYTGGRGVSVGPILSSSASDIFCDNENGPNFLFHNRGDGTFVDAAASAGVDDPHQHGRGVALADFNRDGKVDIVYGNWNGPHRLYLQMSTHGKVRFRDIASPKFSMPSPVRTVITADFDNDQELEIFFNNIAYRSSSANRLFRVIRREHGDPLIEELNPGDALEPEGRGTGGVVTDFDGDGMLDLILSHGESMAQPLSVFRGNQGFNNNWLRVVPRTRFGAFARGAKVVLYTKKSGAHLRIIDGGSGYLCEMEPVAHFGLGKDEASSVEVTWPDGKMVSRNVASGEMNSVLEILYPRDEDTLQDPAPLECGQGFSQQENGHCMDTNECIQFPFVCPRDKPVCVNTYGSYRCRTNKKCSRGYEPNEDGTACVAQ
Briefly: antigen immobilized ELISA; reference fCrtac1B (1-609). Here is the method:
The positive antigen and the negative control were diluted to a concentration of 20 μg/mL with dilution buffer I (20 mM potassium phosphate buffer (pH 7.4), 150 mM NaCl). A positive antigen (50 μL) and a negative control (50 μL) were added to each well of a 96 well plate, respectively. Then, the plate was incubated at 4° C. overnight, and the positive antigen and the negative control were immobilized in the well to obtain an antigen immobilized plate. Each well was washed twice with a washing solution (250 μL, 0.05% Tween (registered trademark) 20/20 mM potassium phosphate buffer (pH 7.4), 150 mM NaCl). To each well was added a blocking buffer (250 μL, 5% skim milk/20 mM potassium phosphate buffer (pH 7.4), 150 mM NaCl), and blocked at room temperature for 90 minutes. Culture supernatant (50 μL) of each hybridoma selected by primary screening was added to each well, and the cells were incubated at 37° C. for 1 hour. Each well was washed three times with a washing solution (250 μL). The HRP-labeled anti-mouse IgG antibody (MBL, product number 330) was diluted 1:1,000 with dilution buffer II (1% skim milk/20 mM potassium phosphate buffer (pH 7.4), 150 mM NaCl). […] The plate was set in a microplate reader (Thermo Fisher Scientific, Varioskan (registered trademark) Flash), and the color development intensity at 655 nm was measured for each well. […]

B1: 15C2 antibody (monoclonal antibody derived from the hybridoma of clone 15C2) (antibody, mouse IgG1, kappa, V domains shown)
VH: EVQLQQFGAELVKPGASVKISCKASGYTFTDYNMDWVKQSHGKSLEWIGDINPNYDSSSYNQKFKGKATLTVDKSSSTAYMELRSLTSEDTAVYYCTRSGGTYWGQGTLVTVSA
VL: DIQMNQSPSSLSASLGDTITITCHASQNINVWLSWYQQKPGNIPKLLIYKASNLHTGVPSRFSGSGSGTGFSLTISSLQPEDIATYYCQQAQSYPRTFGGGTKLEIKR
notes: Mouse IgG1; Used as hybridoma culture supernatant (ELISA) or purified from supernatant (IB, IP); also called anti-Crtac1B antibody; antibody of the present embodiment
Take B1: in test [1], the binding result was “no binding”. The “binding relative to the binding to fCrtac1B (1-609)” value in test [2] was ~0.1 fold.
